Positions count from the first letter of the chain named.
T1: human GITR (Glucocorticoid-induced TNFR-related gene, TNFRSF18) (human, UniProt Q9Y5U5 26-241)
T1 sequence: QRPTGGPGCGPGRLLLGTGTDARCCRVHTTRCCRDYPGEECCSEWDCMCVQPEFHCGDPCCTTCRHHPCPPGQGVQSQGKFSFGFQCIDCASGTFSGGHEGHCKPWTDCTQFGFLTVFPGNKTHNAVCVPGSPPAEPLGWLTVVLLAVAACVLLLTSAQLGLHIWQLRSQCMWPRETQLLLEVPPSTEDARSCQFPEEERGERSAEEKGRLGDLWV

T2: human GITR (human, UniProt Q9Y5U5 26-241)
T2 sequence: T1 sequence

B1: 34G4 (antibody, human IgG1, kappa, V domains shown)
VH: QVQLVESGGGVVQPGRSLRLSCAASGFTFSSYGMHWVRQAPGKGLEWVAVIWYEGSNKYYADSVKGRFTISRDNSKNTLYLQMNSLRAEDTAVYYCARGGQLGYYYYYGMDVWGQGTTVTVSS
VL: DIQMTQSPSSLSASVGDRVTITCRASQGIRNDLGWYQQKPGKAPKRLIYDASSLQSGVPSRFSGSGSGTDFTLTISSLQPEDFATYYCLQLNSYPWTFGQGTKVEIKR
notes: Fully human parental antibody; also called Ab4; SS-12415
B2: 41E11 (antibody, human IgG1, kappa, V domains shown)
VH: B1 VH with L4V, H35Y, K65R, V93L, Y104K, Y105D, Y108S
VL: B1 VL with G28V, D50A, D70E, L91H, W96L, Q100G
notes: Fully human parental antibody; also called Ab6; SS-12417
B3: 9H6 (antibody, human IgG1, kappa, V domains shown)
VH: B1 VH with A23V, V37I, Q101R, Y104K, Y105D, Y108S
VL: B1 VL with K45N, D50A, A51T, D70E, L91H, S93T
notes: Fully human parental antibody; also called Ab19; SS-10945
B4: 48H7 (antibody, human IgG1, kappa, V domains shown)
VH: B1 VH with H35Y, Y95F, Q101E, Y104R, Y105D, Y108S
VL: B1 VL with G28V, D50A, D70E, L91H, W96I, Q100G
notes: Fully human parental antibody; also called Ab13; SS-12423
B5: 48H12 (antibody, human IgG1, kappa, V domains shown)
VH: B1 VH with E54A, L79V, G103A, Y104L
VL: B1 VL with D50A, D70E, L91H, S93N
notes: Fully human parental antibody; also called Ab12; SS-12422
B6: 7A10 (antibody, human IgG1, kappa, V domains shown)
VH: B1 VH with V48M, E54V, R87S, Q101E, Y104R, Y105D, Y108S
VL: B1 VL with D50A, D70E, L89Q, L91H
notes: Fully human parental antibody; also called Ab18; SS-10944
B7: 1D7 (antibody, human IgG1, kappa, V domains shown)
VH: B1 VH with A49T, Y104K
VL: B1 VL with D70E, L91H, S93N
notes: Fully human parental antibody; also called Ab1; SS-10942
B8: 33F6 (antibody, human IgG1, kappa, V domains shown)
VH: B1 VH with S31N, E54V, Q101E, G103R, Y104L
VL: B1 VL with D50A, D70E, I75V
notes: Fully human parental antibody; also called Ab3; SS-12414
B9: 49D9v1 (antibody, human IgG1, kappa, V domains shown)
VH: B1 VH with V2M, R16G, E54A, Q101R, Y104F
VL: B1 VL with D50A, D70E
notes: tied to 49D9v1 by Ab22 / SS-12562; also called Ab22; SS-12562
B10: 35B10 (antibody, human IgG1, kappa, V domains shown)
VH: B1 VH with E54A, Q101E, G103S, Y104F
VL: B1 VL with D50A, S53T, D70E, L91H, S93N
notes: Fully human parental antibody; also called Ab5; SS-12416
B11: 42A11 (antibody, human IgG1, kappa, V domains shown)
VH: B1 VH with Y108S
VL: B1 VL with D82E, L91H, S93N
notes: Fully human parental antibody; also called Ab8; SS-12418
B12: 33C9 (antibody, human IgG1, kappa, V domains shown)
VH: B1 VH with L4V, A49S, Q101L
VL: B1 VL with D70E, L91H, N92H
notes: Fully human parental antibody; also called Ab2; SS-12413
B13: 41G5 (antibody, human IgG1, kappa, V domains shown)
VH: B1 VH with E54P, Q101E, Y104R
VL: B1 VL with I21V, D50A, D70E, L91H, S93N, E105D
notes: Fully human parental antibody; also called Ab7; SS-12428
B14: 5H7 (antibody, human IgG1, kappa, V domains shown)
VH: QVQLQESGPGLVKPSQTLSLTCTVSGGSISSGGYFWSWIRQHPGKGLEWIGYIYYSGTTYYNPSLKSRVTISIDTSKNHFSLKLSSVTAADTAVYYCARDLFYYDSSGPRGFDPWGQGTLVTVSS
VL: EIVLTQSPGTLSLSPGERATLSCRASQTVSSNYLAWYQQKPGQAPRLLIYGSSTRATGIPDRFSGSGSGTDFTLTISRLEPEDFAVYYCQQYDSSPWTFGQGTKVEIKR
notes: Fully human parental antibody; also called Ab17; SS-10943
B15: 41G5 (antibody, human IgG1, kappa, V domains shown)
VH: B1 VH with E54P, Q101E, Y104R
VL: B1 VL with I21V, D50A, D70E, L91H, S93N, E105D
notes: Parental fully human antibody; also called Ab7; SS-12428
B16: 33C9v4 (antibody, human IgG1, kappa, V domains shown)
VH: B1 VH with L4V, A49S, D62E, Q101L
VL: B1 VL with R46L, D70E, L91H, N92H
notes: Engineered variant; also called Ab53; SS-16950
B17: 33C9v5 (antibody, human IgG1, kappa, V domains shown)
VH: B1 VH with L4V, A49S, S63T, Q101L
VL: B1 VL with R46L, D70E, L91H, N92H
notes: Engineered variant; also called Ab54; SS-16951
B18: 33C9v1 (antibody, human IgG1, kappa, V domains shown)
VH: B1 VH with L4V, A49S, Q101L
VL: B1 VL with R46L, D70E, L91H, N92H
notes: Engineered variant; also called Ab50; SS-16948
B19: 33C9v3 (antibody, human IgG1, kappa, V domains shown)
VH: B1 VH with L4V, A49S, S63T, Q101L
VL: B1 VL with D70E, L91H, N92H
notes: Engineered variant; also called Ab52; SS-16949
B20: 41G5v5 (antibody, human IgG1, kappa, V domains shown)
VH: B1 VH with E54P, S63T, Q101E, Y104R
VL: B1 VL with I21V, R46L, D50A, D70E, L91H, S93N, E105D
notes: Engineered variant; also called Ab59; SS-16955
B21: 41G5v4 (antibody, human IgG1, kappa, V domains shown)
VH: B1 VH with E54P, D62E, Q101E, Y104R
VL: B1 VL with I21V, R46L, D50A, D70E, L91H, S93N, E105D
notes: Engineered variant; also called Ab58; SS-16954
B22: 41G5v1 (antibody, human IgG1, kappa, V domains shown)
VH: B1 VH with E54P, Q101E, Y104R
VL: B1 VL with I21V, R46L, D50A, D70E, L91H, S93N, E105D
notes: Engineered variant; also called Ab55; SS-16952
B23: 41G5v3 (antibody, human IgG1, kappa, V domains shown)
VH: B1 VH with E54P, S63T, Q101E, Y104R
VL: B1 VL with I21V, D50A, D70E, L91H, S93N, E105D
notes: Engineered variant; also called Ab57; SS-16953
B24: 5H7 (antibody, human IgG1, kappa, V domains shown)
VH: B14 VH
VL: B14 VL
notes: Parental fully human antibody; also called Ab17; SS-10943
B25: 5H7v14 (antibody, human IgG1, kappa, V domains shown)
VH: B14 VH with Q16E, H42P, H79Q, D113E
VL: B14 VL with D93E
notes: Engineered variant; also called Ab34; SS-16924
B26: 5H7v3 (antibody, human IgG1, kappa, V domains shown)
VH: B14 VH with Q16E, H42P, H79Q, D113E
VL: B14 VL
notes: Engineered variant; also called Ab27; SS-16913
B27: 5H7v18 (antibody, human IgG1, kappa, V domains shown)
VH: B14 VH with Q16E, H42P, H79Q, D113E
VL: B14 VL with S94T
notes: Engineered variant; also called Ab36; SS-16928
B28: 5H7v7 (antibody, human IgG1, kappa, V domains shown)
VH: B14 VH with Q16E, H42P, H79Q, S106T, D113E
VL: B14 VL
notes: Engineered variant; also called Ab29; SS-16917
B29: 5H7v22 (antibody, human IgG1, kappa, V domains shown)
VH: B14 VH with Q16E, H42P, H79Q, S106T, D113E
VL: B14 VL with D93E
notes: Engineered variant; also called Ab38; SS-16932

Biological target: T1, human GITR (Glucocorticoid-induced …)
Experiment: cell-based or functional assay

IFNg Secretion (Fold over CD3) [fold over CD3] | IFNg Secretion EC50 [µg/mL] | Binder
1.9 | 0.0002 | B1
2 | 0.0003 | B2
1.9 | 0.0005 | B3
1.2 | 0.0006 | B4
1.2 | 0.0008 | B5
2.2 | 0.0002 | B6
2.2 | 0.0008 | B7
2.8 | 0.0004 | B8
1.3 | 0.0005 | B9
1.9 | 0.0005 | B10
1.9 | 0.0012 | B11
2.7 | 0.001 | B12
1.9 | 0.0008 | B13
2.9 | 0.0113 | B14

Biological target: T2, human GITR
Experiment: cell-based or functional assay

Proliferation (Fold over CD3) [fold over CD3] | Proliferation EC50 [µg/mL] | Binder
3.7 | 0.004 | B15
2.6 | 0.017 | B16
2.5 | 0.018 | B17
2.1 | 0.018 | B18
3.1 | 0.025 | B19
2.5 | 0.012 | B20
2.2 | 0.015 | B21
2.9 | 0.017 | B22
3.4 | 0.007 | B23
3.4 | 0.008 | B24
1.9 | 0.031 | B25
3.2 | 0.015 | B26
2.7 | 0.012 | B27
2.1 | 0.028 | B28
1.7 | 0.027 | B29

Biological target: T2, human GITR
Experiment: flow cytometry on activated human T cells

EC50 [µg/mL] | Binder
0.055 | B15
0.082 | B16
0.068 | B17
0.078 | B18
0.056 | B19
0.064 | B20
0.068 | B21
0.06 | B22
0.06 | B23
0.303 | B24
0.995 | B25
0.293 | B26
0.804 | B27
0.461 | B28
0.786 | B29

Biological target: T1, human GITR (Glucocorticoid-induced …)
Experiment: flow cytometry (MFI), antibody titration on anti-CD3-activated primary human T cells (CD25+CD4+)
Procedure: Cells were collected and washed and then incubated at 4 C with titrations of the anti-human GITR antibodies or a human IgG1 isotype control antibody. After washing, cells were stained at 4 C with fluorochrome conjugated anti-human CD4 and anti-human CD25 antibodies to identify activated CD4+ effector T cells and with fluorochrome-conjugated anti-huIgG to detect bound anti-human GITR antibodies. The mean fluorescence intensity (MFI) of the anti-human GITR antibodies bound to CD25+CD4+ cells was determined by flow cytometry. The EC50s of the binding curves were calculated using GraphPad Prism® software.

EC50 [µg/mL] | Binder
0.038 | B1
0.048 | B2
0.026 | B3
0.045 | B4
0.048 | B5
0.027 | B6
0.024 | B7
0.053 | B8
0.051 | B9
0.033 | B10
0.051 | B11
0.035 | B12
0.033 | B13
0.164 | B14

From patent publication US20150064204A1 (Amgen, published 2015)
